{
  "source": "paper PMC13262181",
  "about": "(Structure (London, England : 1993), 2025)",
  "key": {"[1]": {"test": "Solubility of synthesized peptides", "type": "physicochemical", "conditions": "when synthesized and experimentally tested"}, "[2]": {"target": "LVEAVY tracer (synthetic construct)", "conditions": "cited from earlier work"}, "[3]": {"target": "T1, Cdc37 (Homo sapiens, UniProt Q16543)", "T1 sequence (Q16543 1-378)": "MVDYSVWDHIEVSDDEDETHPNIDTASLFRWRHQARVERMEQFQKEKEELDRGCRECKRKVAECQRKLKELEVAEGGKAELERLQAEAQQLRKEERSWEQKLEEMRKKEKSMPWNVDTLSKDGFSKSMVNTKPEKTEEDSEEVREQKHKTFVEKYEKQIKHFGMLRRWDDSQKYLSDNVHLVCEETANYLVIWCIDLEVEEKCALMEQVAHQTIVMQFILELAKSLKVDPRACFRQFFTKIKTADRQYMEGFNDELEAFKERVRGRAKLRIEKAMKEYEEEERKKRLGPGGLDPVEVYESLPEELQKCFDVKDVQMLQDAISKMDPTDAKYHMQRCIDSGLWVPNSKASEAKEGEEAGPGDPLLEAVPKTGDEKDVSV", "test": "19F T2 filter NMR binding to Cdc37", "conditions": "19F-peptides 20 μM, increasing Cdc37 (0.5, 1, 2, 4 μM)"}, "[4]": {"target": "T2, Hsc70 SBD construct (residues 395-509) (human, UniProt P11142 395-509)", "T2 sequence (P11142 395-509)": "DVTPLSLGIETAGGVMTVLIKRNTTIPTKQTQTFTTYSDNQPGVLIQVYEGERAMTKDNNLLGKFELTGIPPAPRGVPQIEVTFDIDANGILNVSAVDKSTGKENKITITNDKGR", "test": "fluorescence polarisation"}, "[5]": {"target": "T2, Hsc70 SBD construct (residues 395-509)", "test": "fluorescence polarisation", "remark": "listed apart in the source"}, "[6]": {"target": "T2, Hsc70 SBD construct (residues 395-509)", "test": "fluorescence polarisation", "remark": "listed apart in the source"}},
  "note": "Ends that are not written are not given here. Ahx = NCCCCCC(=O)O",
  "data": [
    {"molecule": "F-GVAEIGVGAYG [Cdk4-3]", "values": [
      {"measurement": "solubility", "setting": "[1]", "result": "limited solubility"}
    ]},
    {"molecule": "Hsc70 SBD (from UniProt P11142)", "values": [
      {"measurement": "Kd", "setting": "[2]", "result": 100, "unit": "nM"}
    ]},
    {"molecule": "PGQLMAISVGPTTLFV [Cdk4-2-scr]", "values": [
      {"measurement": "binding to Cdc37, 19F NMR titration", "setting": "[3]", "result": "no interaction was observed"}
    ]},
    {"molecule": "FATSRTDREGPN [Cdk4-1]", "values": [
      {"measurement": "solubility", "setting": "[1]", "result": "limited solubility"}
    ]},
    {"molecule": "Ac-GGFQMALTPVV-OH", "note": "[unlabeled Cdk4-4]", "values": [
      {"measurement": "Ki", "setting": "[4]", "result": "> 100000", "unit": "nM"}
    ]},
    {"molecule": "{FAM-Ahx}-LPISTGGFQMALTPVV-OH", "note": "[FAM-Ahx-LPISTGGFQMALTPVV-OH]", "values": [
      {"measurement": "Kd", "setting": "[5]", "result": 29, "unit": "nM"}
    ]},
    {"molecule": "Ac-TGGFQMAAT", "note": "[Ac-… with the Leu residue mutated to alanine]", "values": [
      {"measurement": "binding result", "setting": "[6]", "result": "binds"}
    ]},
    {"molecule": "Ac-TGGFQAALT", "note": "[Ac-… with the Met residue mutated to alanine]", "values": [
      {"measurement": "binding result", "setting": "[6]", "result": "binds"}
    ]}
  ]
}
